{"source": "patent EP2769989A1", "target": "AC133-positive and CD3-positive cells (target of the printed Kd not stated)", "assay": "flow cytometry on cells, MFI against antibody concentration, detected with anti-c-Myc mAb and PE anti-mouse F(ab')2; target cell line for this Kd not stated", "data": [{"binder": "AC133xCD3-diabody (bispecific single-chain antibody, VHAC133-G4S Linker-VLCD3-(G4S)3 Linker-VHCD3-G4S Linker-VLAC133) (bispecific antibody) QVQLQQSGAELVRPGASVKLSCKASGYTFSDFEMHWVKQTPVHGLEWIGDIDPGTGDTAYNLKFKGKATLTTDKSSSTAYMELRSLTSEDSAVYYCTLGAFVYWGQGTLVTVSGGGGSDIQMTQSPSSLSASVGDRVTITCRASQDIRNYLNWYQQKPGKAPKLLIYYTSRLESGVPSRFSGSGSGTDYTLTISSLQPEDFATYYCQQGNTLPWTFGQGTKVEIKGGGGSGGGGSGGGGSEVQLVESGGGLVQPGGSLRLSCAASGYSFTGYTMNWVRQAPGKGLEWVALINPYKGVSTYNQKFKDRFTISVDKSKNTAYLQMNSLRAEDTAVYYCARSGYYGDSDWYFDVWGQGTLVTVSSGGGGSDVVVTQTPLSLPVSFGDQVSISCRSSQSLANSYGNTYLSWYLHKPGQSPQLLIYGISNRFSGVPDRFSGSGSGTDFTLKISTIKPEDLGMYYCLQGTHQPYTFGGGTKLEIKRADAAA", "values": [{"measurement": "Kd", "value": 6.4, "unit": "nM"}]}]}
